Measurements taken from patent US20060239966A1.

B1: Neurturin secreted from cells transfected with the dpro-NTN construct (wt NTN signal peptide fused to human mature NTN, no pro-region) (ligand)
chain: ARLGARPCGLRELEVRVSELGLGYASDETVLFRYCAGACEAAARVYDLGLRRLRQRRRLRRERVRAQPCCRPTAYEDEVSFLDAHSRYHTVHELSARECACV
B2: Neurturin secreted from cells transfected with the IgSP-NTN construct (mouse immunoglobulin heavy chain signal peptide fused to human mature NTN) (ligand)
chain: B1 chain

Assays:
[1] = target: GFRα2/Fc fusion protein (R&D Systems); assay: GFRα2 ELISA: GFRα2/Fc on anti-human Fc plate, Ret-AP detection; conditioned medium of transfected CHO cells
[2] = target: GFRα2/Fc fusion protein (R&D Systems); assay: GFRα2 ELISA: GFRα2/Fc on anti-human Fc plate, Ret-AP detection; conditioned medium of transfected HiB5 cells
[3] = target: GFRα2/Fc fusion protein (R&D Systems); assay: GFRα2 ELISA: GFRα2/Fc on anti-human Fc plate, Ret-AP detection; conditioned medium of transfected HEK293 cells
[4] = target: GFRα2/Fc fusion protein (R&D Systems); assay: GFRα2 ELISA: GFRα2/Fc on anti-human Fc plate, Ret-AP detection; conditioned medium of transfected ARPE-19 cells

Binder | fold higher GFRα2 binding activity of conditioned medium (wt construct set to 1) [1] [fold] | fold higher GFRα2 binding activity of conditioned medium (wt construct set to 1) [2] [fold] | fold higher GFRα2 binding activity of conditioned medium (wt construct set to 1) [3] [fold] | fold higher GFRα2 binding activity of conditioned medium (wt construct set to 1) [4] [fold]
B1 | 4.1 | 7.5 | 90 | 117
B2 | 66 | 162 | 278 | 771
